The chains are these.
B1: P2-51 (peptide)
peptide: H-DP[hCys]TWEVWGRECLQGG[Pra]G-NH2
modifications: disulfide 3-12
SMILES: C#CC[C@H](NC(=O)CNC(=O)CNC(=O)[C@H](CCC(N)=O)NC(=O)[C@H](CC(C)C)NC(=O)[C@@H]1CSSCC[C@H](NC(=O)[C@@H]2CCCN2C(=O)[C@@H](N)CC(=O)O)C(=O)N[C@@H]([C@@H](C)O)C(=O)N[C@@H](Cc2c[nH]c3ccccc23)C(=O)N[C@@H](CCC(=O)O)C(=O)N[C@@H](C(C)C)C(=O)N[C@@H](Cc2c[nH]c3ccccc23)C(=O)NCC(=O)N[C@@H](CCCNC(=N)N)C(=O)N[C@@H](CCC(=O)O)C(=O)N1)C(=O)NCC(N)=O
B2: P2-86 (peptide)
peptide: DPCT[Phe(4-NH2)]EVWGRECLQ
modifications: disulfide 3-12; not fully specified (N-terminus)
notes: P2 backbone; also called P2 with 4-Amino Phenylalanine at W5
B3: P2-74 (peptide)
peptide: DPCT[3Pal]EVWGRECLQ
modifications: disulfide 3-12; not fully specified (N-terminus)
notes: P2 backbone; also called P2 with 3-Pyridyl Alanine at W5
B4: P2-94 (peptide)
peptide: DPCT[hPhe]EVWGRECLQ
modifications: disulfide 3-12; not fully specified (N-terminus)
notes: P2 backbone; also called P2 with Homophenylalanine at W5
B5: P2-91 (peptide)
peptide: DPCTWEV[Bta]GRECLQ
modifications: disulfide 3-12; not fully specified (N-terminus)
notes: P2 backbone; also called P2 with 3-Benzothienyl Alanine at W8
B6: P2-96 (peptide)
peptide: DPCT[Dip]EVWGRECLQ
modifications: disulfide 3-12; not fully specified (N-terminus)
notes: P2 backbone; also called P2 with Diphenylalanine at W5
B7: P2-52 (peptide)
peptide: H-DP[hCys]TWEVWGRE[hCys]LQGG[Pra]G-NH2
modifications: disulfide 3-12
SMILES: C#CC[C@H](NC(=O)CNC(=O)CNC(=O)[C@H](CCC(N)=O)NC(=O)[C@H](CC(C)C)NC(=O)[C@@H]1CCSSCC[C@H](NC(=O)[C@@H]2CCCN2C(=O)[C@@H](N)CC(=O)O)C(=O)N[C@@H]([C@@H](C)O)C(=O)N[C@@H](Cc2c[nH]c3ccccc23)C(=O)N[C@@H](CCC(=O)O)C(=O)N[C@@H](C(C)C)C(=O)N[C@@H](Cc2c[nH]c3ccccc23)C(=O)NCC(=O)N[C@@H](CCCNC(=N)N)C(=O)N[C@@H](CCC(=O)O)C(=O)N1)C(=O)NCC(N)=O
B8: P2-53 (peptide)
peptide: DPCTWEVWGREXLQGGGG
modifications: free N-terminus; penicillamine (Pen) at 12, disulfide with Cys3; Par at 17; C-terminal amide
B9: P2-27 (peptide)
peptide: H-DPC[Pra]WEVWGRECLQ-NH2
modifications: disulfide 3-12
SMILES: C#CC[C@@H]1NC(=O)[C@@H](NC(=O)[C@@H]2CCCN2C(=O)[C@@H](N)CC(=O)O)CSSC[C@@H](C(=O)N[C@@H](CC(C)C)C(=O)N[C@@H](CCC(N)=O)C(N)=O)NC(=O)[C@H](CCC(=O)O)NC(=O)[C@H](CCCNC(=N)N)NC(=O)CNC(=O)[C@H](Cc2c[nH]c3ccccc23)NC(=O)[C@H](C(C)C)NC(=O)[C@H](CCC(=O)O)NC(=O)[C@H](Cc2c[nH]c3ccccc23)NC1=O
B10: P2-70 (peptide)
peptide: DPCTFEVWGRECLQ
modifications: disulfide 3-12; not fully specified (N-terminus, C-terminus)
notes: P2 backbone; also called P2 with Phenylalanine at W5
B11: P2-35 (peptide)
peptide: H-DPCTWE[Pra]WGRECLQ-NH2
modifications: disulfide 3-12
SMILES: C#CC[C@@H]1NC(=O)[C@H](CCC(=O)O)NC(=O)[C@H](Cc2c[nH]c3ccccc23)NC(=O)[C@H]([C@@H](C)O)NC(=O)[C@@H](NC(=O)[C@@H]2CCCN2C(=O)[C@@H](N)CC(=O)O)CSSC[C@@H](C(=O)N[C@@H](CC(C)C)C(=O)N[C@@H](CCC(N)=O)C(N)=O)NC(=O)[C@H](CCC(=O)O)NC(=O)[C@H](CCCNC(=N)N)NC(=O)CNC(=O)[C@H](Cc2c[nH]c3ccccc23)NC1=O
B12: P2-31 (peptide)
peptide: H-DPCTW[Pra]VWGRECLQ-NH2
modifications: disulfide 3-12
SMILES: C#CC[C@@H]1NC(=O)[C@H](Cc2c[nH]c3ccccc23)NC(=O)[C@H]([C@@H](C)O)NC(=O)[C@@H](NC(=O)[C@@H]2CCCN2C(=O)[C@@H](N)CC(=O)O)CSSC[C@@H](C(=O)N[C@@H](CC(C)C)C(=O)N[C@@H](CCC(N)=O)C(N)=O)NC(=O)[C@H](CCC(=O)O)NC(=O)[C@H](CCCNC(=N)N)NC(=O)CNC(=O)[C@H](Cc2c[nH]c3ccccc23)NC(=O)[C@H](C(C)C)NC1=O
B13: P2-8 (peptide)
peptide: DPCTWEVAGRECLQ
modifications: disulfide 3-12; not fully specified (N-terminus, C-terminus); also: C-terminal propargylglycine moiety
notes: also called P2 Ala scan, AA position 8
B14: P2-101 (peptide)
peptide: DPCTWEVXGRECLQ
modifications: not fully specified; 5-Methoxy Tryptophan at 8; Cys3-Cys12 disulfide
notes: P2 backbone; also called P2 with 5-Methoxy Tryptophan at W8
B15: P2-92 (peptide)
peptide: DPCT[2Thi]EVWGRECLQ
modifications: disulfide 3-12; not fully specified (N-terminus)
notes: P2 backbone; also called P2 with 2-Thienyl Alanine at W5
B16: P2-90 (peptide)
peptide: DPCTXEVWGRECLQ
modifications: not fully specified; 3-Benzothienyl Alanine at 5; Cys3-Cys12 disulfide
notes: P2 backbone; also called P2 with 3-Benzothienyl Alanine at W5
B17: P2-88 (peptide)
peptide: DPCT[Phe(F5)]EVWGRECLQ
modifications: disulfide 3-12; not fully specified (N-terminus)
notes: P2 backbone; also called P2 with Pentafluoro Phenylalanine at W5

The text below walks through data of patent US20170224620A1 (Pfizer, published 2017).

Bridges are numbered along the chain shown (N, C = ends). Where no end group is shown, it is not given here. [ ]: non-standard residue; d: D form. Phe(F5) = N[C@@H](Cc1c(F)c(F)c(F)c(F)c1F)C(=O)O; Dip = N[C@H](C(=O)O)C(c1ccccc1)c1ccccc1; Phe(4-NH2) = Nc1ccc(C[C@H](N)C(=O)O)cc1; Bta = N[C@@H](Cc1csc2ccccc12)C(=O)O; hPhe = N[C@@H](CCc1ccccc1)C(=O)O; 3Pal = N[C@@H](Cc1cccnc1)C(=O)O; 2Thi = N[C@@H](Cc1cccs1)C(=O)O; hCys = N[C@@H](CCS)C(=O)O; Pra = C#CC[C@H](N)C(=O)O

This test has as its target T1, Fc tagged recombinant human EGFR (rhEGFR-Fc, R&D systems, Cat#344-ER-050) (human, UniProt P00533 25-645).
T1 construct: Bought protein; also called apo-EGFR; not shown: Fc tag
Kind of test: SPR. Here is the method: Surface plasmon resonance (SPR) binding studies were carried out on a Biacore T200 instrument (GE Healthcare). […] The contact time and resulting amount of rhEGFR-Fc capture was varied based on the nature of the analyte, namely whether it was a peptide or nanoparticle.
Peptide binding assays were carried out in 10 mM PBS buffer supplemented with 0.05% surfactant P20 and 5% DMSO by volume, at 25° C. Peptides were injected over the rhEGFR-Fc surface for 60 s, followed by dissociation (buffer injection) for 60 s and regeneration with a 10 s pulse of 3M MgCl₂. A fresh rhEGFR-Fc surface was generated for each concentration of each peptide tested. Peptide binding data was analyzed by fitting to a 1:1 Langmuir kinetic model to obtain the on-rate (kₐ), off-rate (kd) and/or equilibrium binding constant (KD) of the interaction.
With B1, the “Result (affinity relative to KD of P2)” value was determined as 8.88 ratio.
With B2, the “KD Relative to P2” value is 9 ratio.
As to B3, the “KD Relative to P2” value is 11.8 ratio.
Same read-out and setting: under B4 stands 9.1 ratio; under B5, 124 ratio.
Regarding B6, the “KD Relative to P2” value came to 8.9 ratio.
With H-GGDPETWEVWGREKLQGG[Pra]G-NH2 (lactam 5-14) [P2-67], the binding result is listed as “binds”.
B7: the “Result (affinity relative to KD of P2)” value is 14 ratio.
For DPCTWEVWXRECLQGGGG (free N-terminus; Sar at 9; Cys3-Cys12 disulfide; Par at 17; C-terminal amide) [P2-43], the binding result is recorded as “no binding”.
Take B8: the “Result (affinity relative to KD of P2)” value was found to be 2.64 ratio.
On to DPXTWEVWGREXLQGGGG (free N-terminus; Pen at 3 and 12, disulfide; Par at 17; C-terminal amide, also called PenPen analog) [P2-55 (free-ligand series, GG-Par-G tail)], for which the “Result (affinity relative to KD of P2)” value is 1.18 ratio.
For DPATWEVWGRECLQ-{propargyl glycine moiety (p-0168)} (not fully specified (N-terminus), also called P2 Ala scan, AA position 3) [P2-3], the binding result is given as “no binding”.
For B9, the “KD/P2 KD” value is 5.4 ratio.
For the molecule B10, the “KD Relative to P2” value stood at 9.24 ratio.
Consider B11, for which the “KD/P2 KD” value was 5.69 ratio.
In the case of B12, the “KD/P2 KD” value was determined as 0.86 ratio.
For B13, the binding result is “no binding”.
Same read-out and setting: under Ac-DPCTWEVWGREALQ (also: C-terminal propargylglycine moiety, not placed, also called P2 Ala scan, AA position 12) [P2-12] stands “no binding”.
For the molecule B14, the “KD Relative to P2” value was found to be 0.5 ratio.
Regarding B15, the “KD Relative to P2” value worked out at 15.9 ratio.
B16: the “KD Relative to P2” value worked out at 1.6 ratio.
As for DPXTWEVWGRECLQGGGG (free N-terminus; Pen at 3, disulfide with Cys12; Par at 17; C-terminal amide) [P2-54], the “Result (affinity relative to KD of P2)” value came out at 4.78 ratio.
As to B17, the “KD Relative to P2” value is 8.5 ratio.
